Results as given in US20250051443A1 (NATIONAL RESEARCH COUNCIL OF CANADA, published 2025).

Assays:
[1] = target: T1, human CD3 (human, UniProt P07766 23-207; P09693 23-182; P04234 22-171); assay: cell-based or functional assay
[2] = target: T1, human CD3; assay: cell-based or functional assay; remark: listed apart in the source
[3] = target: T1, human CD3; assay: flow cytometry, hybridoma supernatant on CD3+ Jurkat cells
Description: Cells were stained with either negative control mouse IgG (Jackson Immunoresearch cat #115-000-003) or an anti-GFP 3E6 mAb supernatant or tested hybridoma supernatant. Specific binding was reflected by the increase in the mean fluorescent intensity of antibody binding to Jurkat T-cells (FIGS. 1A to 1F, grey histograms) compared to the Jurkat CD3 negative cell line J.RT3-T3.5 (FIGS. 1A to 1F, open histograms). AF488 labeled positive control mAb OKT3 was also analyzed.

[4] = target: T1, human CD3; assay: apparent KD (KDapp), flow cytometry titration on Jurkat cells
Description: Unless otherwise stated, all media are kept are 4° C. and all incubations are performed on wet ice. Exponentially growing Jurkat cells were centrifuged and resuspended in complete medium at a cell density of 2×10⁶ cells/mL. Fifty μL/well of cells were distributed in a polypropylene v-bottom 96 well plate and serial 1/3 dilutions of purified mAbs starting at 300 nM were added and incubated for 2 hours. Cells were washed twice by centrifugation and further incubated with a FITC labeled F(ab′)2 goat anti-mouse antibody (Fc specific, #115-096-071, Jackson Immunoresearch, Cedarlane, Burlington, ON) for an hour. Cells were washed and re-suspended in medium containing Propidium iodide to exclude dead cells from analysis. Samples were filtered through a 60 μm nylon mesh filter plate (Millipore, Ireland) to remove cell aggregates. Flow cytometry analyses were performed on 2,000 viable single-cells events gated on forward scattering, side scattering parameters and propidium iodide dye exclusion using a BD-LSRFortessa flow cytometer (Becton-Dickinson Biosciences, CA, USA) and a standard filter set using BD FACSDiva™ acquisition software, according to manufacturer's instructions.

[5] = target: T1, human CD3; assay: flow competition on Jurkat, 100 nM unlabeled mAb; competitor AF488-SK7 1.5 nM
How it was run: (§1)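 Jurkat cells incubated with a fixed concentration of AF488-labeled anti-CD3 mAb plus 100 nM unlabeled mAb, with competition read by flow cytometry as impaired labeled-mAb binding. In-house AF488-OKT3 mIgG2b was desalted and checked for integrity by UPLC-SEC.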

[6] = target: T1, human CD3; assay: flow competition on Jurkat, 100 nM unlabeled mAb; competitor AF488-UCHT1 5 nM
How it was run: as §1

[7] = target: T1, human CD3; assay: apparent KD (KDapp), flow cytometry titration on purified primary human T cells
How it was run: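 Freshly isolated human T cells from PBMCs (negative pan-T selection), 1×10⁵ per test, stained 2 h at 4 °C with eight-point mAb dilutions from 300 or 100 nM, then APC anti-mouse IgG secondary 30 min. Background-subtracted flow MFI fitted by one-site specific binding with Hill slope for KDapp.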

[8] = target: T1, human CD3; assay: flow competition on Jurkat, 100 nM unlabeled mAb; competitor AF488-SP34.2 20 nM
Description: (§2) In order to evaluate whether anti-CD3 monoclonal antibodies bind to the same epitope region, flow cytometry competition experiments on Jurkat cells were performed.
(§3) To that effect, a fixed concentration of the indicated AF488-labeled mAb were incubated with 100 nM of unlabeled monoclonal antibodies to assess if their binding capacity was impaired in presence of unlabeled mAbs. […] The AF488-OKT3 mIgG2b was labeled in-house using AlexaFluor488 protein labelling kit (Invitrogen #A10235) following manufacturer's instruction. The free dye removal step was done using Zeba™ Spin Desalting Columns, 7K MWCO (Thermo Scientific #89890). The final product was analyzed by UPLC-SEC to ensure the integrity of the labeled mAb.

[9] = target: T1, human CD3; assay: flow competition on Jurkat, 100 nM unlabeled mAb; competitor AF488-OKT-3 mIgG2b 1.5 nM
Description: as §2, §3

B1: F282-2D5 (antibody, V domains shown)
VH: QVQLQQPGTELVKPGASVKLSCKASGYTFTSYWMHWVKQRPGQGLEWIGNINPSNGGTNYNENFKTKATLTVDKSSSTAYMQLSSLTSEDSAVYYCARDRSGQYYFDYWGQGTTLTVSS
VL: DIVMSQSPSSLAVSAGEKVTMSCKSSQSLLNSRTRKNYLAWYQQKPGQSPKLLIYWASTRESGVPDRFTGSGSGTDFTLTISSVQAEDLAVYYCIQSYHLRTFGGGTILEIK
notes: also called F282-2D5-2
- % max ref. OKT3 (dTomato activation) [1]: 98%
- EC50 of dTomato induction (CD69 promoter), Jurkat-CD69-dTomato cells, 24 h [1]: 0.13 µg/mL
- IC50, indirect ADC surrogate growth inhibition (anti-mouse-DM1) on Jurkat cells [2]: 0.075 nM
- Span, indirect ADC surrogate growth inhibition on Jurkat cells [2]: 97%
- MFI [3]: 349 MFI
- Kd [4]: 0.3 nM
- % residual fluorescence of labeled mAb [5]: 42%
- % residual fluorescence of labeled mAb [6]: 64%
- Kd [7]: 0.47 nM
- % residual fluorescence of labeled mAb [8]: 7%
- % residual fluorescence of labeled mAb [9]: 78%

B2: F332-3E9 (antibody, mouse IgG2a, V domains shown)
VH: QVQLQQPGAELGKPGTSVKLSCKASGYTFTSYWIHWLKQRPGQGLEWIGNINPNGGSINCNEKFTTKATLTIDKSSSTAYMQLSTLTSEDFAVYYCTRDTSGQYYFDYWGQGTTLTVSS
VL: DIMMSQSPSSLAVSAGEKVTMSCKSSQSLLNSRTRKNYLAWYQQKPGQSPKLLIYWASTRESGVPDRFTGSGSGTDFTLTISSVQAEDLAVYYCTQSYHLRTFGGGTKLEIK
notes: also called F332-3E9-2; F332-3E9 (12G4)
- % max ref. OKT3 (dTomato activation) [1]: 84%
- EC50 of dTomato induction (CD69 promoter), Jurkat-CD69-dTomato cells, 24 h [1]: 0.11 µg/mL
- IC50, indirect ADC surrogate growth inhibition (anti-mouse-DM1) on Jurkat cells [2]: 0.05 nM
- Span, indirect ADC surrogate growth inhibition on Jurkat cells [2]: 94%
- MFI [3]: 297 MFI
- Kd [4]: 0.5 nM
- % residual fluorescence of labeled mAb [5]: 45%
- % residual fluorescence of labeled mAb [6]: 76%
- Kd [7]: 1 nM
- % residual fluorescence of labeled mAb [8]: 11%
- % residual fluorescence of labeled mAb [9]: 79%

B3: F332-1C9 (antibody, mouse IgG2a, V domains shown)
VH: QVQLQQPGAELGKPGTSVNLSCKASGYTFTSYWMHWVKQRPGQGLDWIGNINPNSGTTNYNEKFKSKATLTVDKSSSTAYMQLSTLTSEDSAVYYCTRDISGQYYFDYWGQGTSLTVSS
VL: DIVMSQSPSSLAVSAGEKVTMSCKSSQSLLNSRTRKNYLAWYQQKPGQSPKLLIYWASTRESGVPDRFTGSGSGTDFTLIISSVQAEDLAVYYCKQSYSLRTFGGGTKLEIK
notes: Sister clones 1A10, 5H8, 8B11 share the same entries; also called F332-1C9-2; F332-1C9 (1A10, 5H8, 8B11)
- % max ref. OKT3 (dTomato activation) [1]: 94%
- EC50 of dTomato induction (CD69 promoter), Jurkat-CD69-dTomato cells, 24 h [1]: 0.2 µg/mL
- IC50, indirect ADC surrogate growth inhibition (anti-mouse-DM1) on Jurkat cells [2]: 0.072 nM
- Span, indirect ADC surrogate growth inhibition on Jurkat cells [2]: 94%
- MFI [3]: 277 MFI
- Kd [4]: 0.5 nM
- % residual fluorescence of labeled mAb [5]: 45%
- % residual fluorescence of labeled mAb [6]: 76%
- Kd [7]: 0.94 nM
- % residual fluorescence of labeled mAb [8]: 12%
- % residual fluorescence of labeled mAb [9]: 89%

B4: F332-6D7 (antibody, mouse IgG2a, V domains shown)
VH: QVQLQQPGAELGKPGTSVNLSCKASGYTFTSYWMHWVKQRPGQGLDWIGNINPNSGTTNYNEKFKSKATLTVDKSSSTAYMQLSTLTSEDSAVYYCTRDISGQYYFDYWGQGTSLTVSS
VL: DIVMSQSPSSLAVSAGEKVTMSCKSSQSLLNSRTRKNYLAWYQQKPGQSPKLLIYWASTRESGVPDRFTGSGSGTDFTLTISSVQAEDLAVYYCKQSYSLRTFGGGSKLEIK
notes: also called F332-6D7-2; F332-6D7 (7G4)
- % max ref. OKT3 (dTomato activation) [1]: 86%
- EC50 of dTomato induction (CD69 promoter), Jurkat-CD69-dTomato cells, 24 h [1]: 0.25 µg/mL
- IC50, indirect ADC surrogate growth inhibition (anti-mouse-DM1) on Jurkat cells [2]: 0.072 nM
- Span, indirect ADC surrogate growth inhibition on Jurkat cells [2]: 96%
- MFI [3]: 247 MFI
- Kd [4]: 0.8 nM
- % residual fluorescence of labeled mAb [5]: 44%
- % residual fluorescence of labeled mAb [6]: 73%
- Kd [7]: 0.46 nM
- % residual fluorescence of labeled mAb [8]: 10%
- % residual fluorescence of labeled mAb [9]: 89%

B5: F332-4D6 (antibody, mouse IgG2a, V domains shown)
VH: QVQLQQSGAELGKPGTSVKLSCKASGYTFTSYWIHWVKQRPGQGLEWIGNINPNSGSTNYNEKFKRKATLTADKSSSTAYMQLSTLTSEDFAVYYCTRDTSGQYYFDYWGQGTTLTVSS
VL: DIVMSQSPSSLAVSAGEKVTMSCKSSQSLLNSRTRKNYLAWYQQKPGQSPKVLIYWASTRESGVPDRFTGSGSGTDFTLTISSVQAEDLAVYYCKQSYHLRTFGGGTKLEIK
notes: also called F332-4D6-2; F322-4D6
- % max ref. OKT3 (dTomato activation) [1]: 87%
- EC50 of dTomato induction (CD69 promoter), Jurkat-CD69-dTomato cells, 24 h [1]: 0.18 µg/mL
- IC50, indirect ADC surrogate growth inhibition (anti-mouse-DM1) on Jurkat cells [2]: 0.038 nM
- Span, indirect ADC surrogate growth inhibition on Jurkat cells [2]: 92%
- MFI [3]: 398 MFI
- Kd [4]: 0.5 nM
- % residual fluorescence of labeled mAb [5]: 44%
- % residual fluorescence of labeled mAb [6]: 76%
- Kd [7]: 0.53 nM
- % residual fluorescence of labeled mAb [8]: 9%
- % residual fluorescence of labeled mAb [9]: 78%

B6: F332-1E2 (antibody, mouse IgG2a, V domains shown)
VH: QVQLQQPGAELGKPGTSVKLSCKASGYTFTSYWIHWVKQRPGQGLEWVGNINPNSGSINYNEKFKNKATLTVDKSSSTAYMQLSTLTSEDFAVYYCTRDTSGQYYFDYWGQGTTLTVSS
VL: DIVMSQSPSSLAVSAGERVTMSCKSSQSLLNSRTRKNYLAWYQQKPGQSPKLLIYWASTRESGVPDRFTGSGSGTDFTLTISSVQAEDLAVYYCIQSYHLRTFGGGTKLEIK
notes: Sister clone 8C5 shares the same entries; also called F332-1E2-2; F332-1E2 (8C5)
- % max ref. OKT3 (dTomato activation) [1]: 104%
- EC50 of dTomato induction (CD69 promoter), Jurkat-CD69-dTomato cells, 24 h [1]: 0.16 µg/mL
- IC50, indirect ADC surrogate growth inhibition (anti-mouse-DM1) on Jurkat cells [2]: 0.031 nM
- Span, indirect ADC surrogate growth inhibition on Jurkat cells [2]: 95%
- MFI [3]: 319 MFI
- Kd [4]: 0.3 nM
- % residual fluorescence of labeled mAb [5]: 42%
- % residual fluorescence of labeled mAb [6]: 69%
- Kd [7]: 0.4 nM
- % residual fluorescence of labeled mAb [8]: 6%
- % residual fluorescence of labeled mAb [9]: 77%
